One substance from publication PMC8994517 can be followed below.

This assay deals with Human Hsp90α (human) (UniProt P07900). The assay is described as follows: cryo-EM structure.

In the case of “MBP (maltose-binding protein)-GR ligand-binding domain (LBD) (F602S) (520-777) (from UniProt P04150 520-777) (domain or fragment)”, the stoichiometry N (GR per Hsp90 dimer) was 1.
